These results are taken from patent US20190202914A1 (HARBOUR BIOMED SHANGHAI, published 2019).

Assay [1] concerns the target T1, cyno CTLA-4 expressed on 293 cells (293-cynoCTLA-4 cells) (cyno, UniProt G7PL88 36-223).
T1 construct: also called cynomolgus CTLA-4
T1 sequence: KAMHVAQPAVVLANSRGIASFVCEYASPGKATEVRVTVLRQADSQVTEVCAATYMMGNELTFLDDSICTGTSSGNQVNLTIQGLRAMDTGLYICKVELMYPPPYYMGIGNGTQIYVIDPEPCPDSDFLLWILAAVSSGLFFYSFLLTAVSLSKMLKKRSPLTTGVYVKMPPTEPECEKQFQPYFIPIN
Briefly: flow cytometry (MFI) on 293 cells expressing cynomolgus CTLA-4, Alexa 488 anti-human (H+L) detection. How it is done: (§1) The culture medium was aspirated, and the cells were washed twice with HBSS (Hanks Balanced Salt Solution, Invitrogen). The cells were treated with enzyme-free cell dissociation solution (Versene solution, Invitrogen) and collected. The cells were then washed twice with HBSS, cell counts were determined, and cells were resuspended with HBSS at 2×10⁶ cells/mL. BSA was added to the cell suspension to a final concentration of 1%, and the cells were blocked for 30 minutes on ice and then washed twice with HBSS. The cells were collected after centrifugation and resuspended in FACS buffer (HBSS+1% BSA, v/v) at 2×10⁶ cells/mL. 100 μL of the cell suspension were then added to each well of a 96-well plate. 100 μL of purified anti-CTLA-4 antibodies from Example 2 or control antibodies were added to each well of the 96-well plate and incubated for 1 hour on ice, wherein the heavy chain and light chain of the Ipilimumab analogue had amino acid sequences of SEQ ID NO.: 199 and SEQ ID NO.: 200, respectively. Cells were washed twice with FACS buffer, and 100 μL of Alexa 488-labeled anti-human (H+L) antibody (Invitrogen) were added to the 96-well plate and incubated for 1 hour on ice. The samples were washed three times with FACS buffer, and 100 μL of fixation buffer (containing 4% paraformaldehyde, v/v) were added to each well and incubated for 10 minutes. The cells were then washed twice with FACS buffer and resuspended in 100 μL of FACS buffer.

Assay [2] concerns the target T2, human CTLA-4 expressed on cells (293-hCTLA-4 cells; CTLA-4-expressing CHO-K1 cells) (human, UniProt P16410 36-223).
T2 construct: also called CD152; cell-expressed CTLA-4
T2 sequence: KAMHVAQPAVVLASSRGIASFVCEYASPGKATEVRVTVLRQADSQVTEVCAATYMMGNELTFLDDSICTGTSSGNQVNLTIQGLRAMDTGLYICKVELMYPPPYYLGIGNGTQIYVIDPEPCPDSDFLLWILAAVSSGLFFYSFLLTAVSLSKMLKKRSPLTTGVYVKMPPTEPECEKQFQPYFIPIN
Briefly: flow cytometry (MFI) on 293 cells expressing human CTLA-4, Alexa 488 anti-human (H+L) detection. How it is done:
as §1

Assay [3] concerns the target T2, human CTLA-4 expressed on cells …. Briefly: cell-based blocking assay, flow cytometry: % blocking of biotin labeled B7.1 binding to 293-hCTLA-4 cells.
For assay [4] the target is unchanged. Briefly: flow cytometry (MFI) on 293F-hCTLA-4 cells, Alexa 488 anti-human (H+L) detection. How it is done: Cell-based binding assay was performed to determine the binding ability of the anti-CTLA-4 antibody variants with PTM removal to human CTLA-4. The assay procedure was similar to that described in Example 3. […] Cells were centrifuged and blocked in blocking buffer (containing 2% BSA, pH 7.4 PBS buffer, w/v) at 1×10⁶ cells/mL for 15 minutes at 37° C. 200 μL of cells were dispensed to each well of the 96-well plates (2×10⁵ cells/well). The plates were centrifuged and the supernatants were discarded. The cells were resuspended in 100 μL of anti-CTLA-4 antibodies prepared in blocking buffer. The plates were incubated at 4° C. for 90 minutes and washed twice. After the blocking buffer was discarded, the cells were resuspended in 100 μL of Alexa 488-labeled anti-human (H+L) antibody (1:500, Invitrogen) and incubated at 4° C. for 1 hour. The cells were washed and resuspended in 200 μL of blocking buffer. The mean fluorescence intensity (MFI) was determined using FACS Calibur (BD).

The target of assay [5] is T3, Recombinant human CTLA-4-his protein (CT4-H5229, Acro Bio) (human, UniProt P16410 36-161).
T3 construct: extracellular domain; Bought protein; also called Human CTLA-4^ECD-his; not shown: his tag
T3 sequence (looked up): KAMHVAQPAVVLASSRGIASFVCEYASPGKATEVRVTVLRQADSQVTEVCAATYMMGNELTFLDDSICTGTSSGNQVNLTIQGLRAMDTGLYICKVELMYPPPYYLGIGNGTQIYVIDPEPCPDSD
The assay can be described thus: SPR, Biacore T200, antibody immobilised, CTLA-4-his injected, 1:1 model. How it is done:
Dissociation constants were determined by Biacore T200 (GE Healthcare), following the specifications of the instrument provided by the manufacturer. Briefly, 1 μg/mL diluted anti-CTLA-4 antibodies in 10 mM NaOAc (pH 5.0, sigma) were immobilized on flow cell of a Series S CMS sensor chip. Remaining active ester groups were blocked with 1 M ethanolamine (pH 8.5). With HBS-EP+ as the running buffer, recombinant human CTLA-4-his (CT4-H5229, AcroBio) and cynoCTLA-4-his proteins (CT4-05227, AcroBio) with five serial diluted concentrations were injected over flow cells at 30 μL/min with the association time of 180 s. Buffer flow was maintained for dissociation for 600s.

Assay [6] addresses T2, human CTLA-4 expressed on cells …. The assay can be described thus: cell-based blocking assay, flow cytometry: % blocking of biotinylated B7.1 ECD-Fc binding to 293-hCTLA-4 cells. How it is done: Cell-Based Receptor-Ligand Binding assay was performed to determine the ability of the anti-CTLA-4 antibodies to block the binding of CTLA-4 to its ligands B7.1. Recombinant B7.1^ECD-Fc protein (B71-H5259, Acro Bio) was biotinylated using EZ-LINK NHS-PEG12-Biotin (Thermo Scientific#21312) according to the manufacturer's instruction. Biotinylated B7.1^ECD-Fc protein was concentrated and free label removed by using Amicon centrifugal filter (10 kDa cut off). The extracellular domain of B7.1 corresponded to amino acids Val35-Asn242 of Uniprot database protein P33681.
The culture medium was aspirated, and the cells were washed twice with PBS. The cells were treated with enzyme-free cell dissociation solution (Versene solution, Invitrogen) and collected. Dissociation solution was neutralized by the addition of 8 mL of culture medium, and cell counts were determined. Cells were centrifuged at 300 g for 5 minutes and resuspended in blocking buffer (containing 2% BSA, pH 7.4 PBS buffer, w/v) at 1×10⁶ cells/mL. The cells were blocked for 15 minutes at 37° C. Meanwhile, the wells of 96-well round-bottom plates were blocked with 200 μL of blocking buffer for 1 hour at 37° C. The blocking buffer was discarded, and 200 μL of cells were dispensed to each well of the 96-well plates (2×10⁵ cells/well). The plates were centrifuged at 500 g for 5 minutes, and the supernatants were discarded. The cells were resuspended in 100 μL of anti-CTLA-4 antibodies prepared in blocking buffer with varying concentrations. 100 μL of biotinylated B7.1 ECD-Fc (60 μg/mL in blocking buffer) were added to each well of 96-well plate and mixed by shaking gently. The plates were incubated at 4° C. for 90 minutes and washed twice with 200 μL blocking buffer. The blocking buffer was discarded, and the cells were resuspended in 100 μL of streptavidin-Alexa 488 solution (Invitrogen, 1:500 in blocking buffer) and incubated at 4° C. for 1 hour. The plates were washed three times with blocking buffer and added with 200 μL of blocking buffer.
The mean fluorescence intensity (MFI) was determined using FACS Calibur (BD).

B1: CL3 (antibody, human IgG1, V domains shown)
VH: EVQLVEIGGGEIQPGGSLRLSCAASGFNVSKNYMSWVRQAPGKGLEWVSVIYSGGGTEYAASVKGRFNISRDSSKNMLYLQMNNLRAEDTAVYYCARAVPRPHGTDIWGQGTMVTVSS
notes: Human heavy-chain-only antibody (HCAb): two heavy chains, no light chain
B1: the entries for the “EC50 (read off the curve)” value in assay [1] and in assay [2] were around 1 nM and around 2 nM, respectively.

B2: CL5-dPTM′ (antibody, human IgG1, V domains shown)
VH: EVQLVESGGGLIQPGGSLRLSCAVSGFTVSKNYMSWVRQAPGKGLEWVSVVYSGGSKTYADSVKGRFTISRDNSKNTLYLQMNSLRAEDTAVYYCARAVPHSPSSFDIWGQGTMVTVSS
notes: HCAb variant with PTM removal
As for B2, in assay [3], the “IC50 (read off the curve)” value is around 7 nM. Moreover, the “EC50 (read off the curve)” value in assay [4] was around 1 nM.

B3: CL5′-dPTM′ (antibody, human IgG1, V domains shown)
VH: EVQLVESGGGLIQPGGSLRLSCAVSGFTVSKNYMSWVRQAPGKGLEWVSVVYSGGSKTYADSVKGRFTISRDNSKNTLYLQMNSLRAEDTAVYYCARAVPHSPSSFDIWGQGTMVTVSS
notes: HCAb variant with PTM removal
As to B3, in assay [5], the dissociation constant Kd is 0.0428 nM, the koff amounted to 0.000229 s⁻¹ and the kon is 5.35e+06 M⁻¹ s⁻¹.

B4: CL5′-eA-dPTM′ (antibody, human IgG1, V domains shown)
VH: EVQLVESGGGLIQPGGSLRLSCAVSGFTVSKNYMSWVRQAPGKGLEWVSVVYSGGSKTYADSVKGRFTISRDNSKNTLYLQMNSLRAEDTAVYYCARAVPHSPSSFDIWGQGTMVTVSS
notes: HCAb variant with PTM removal and the eA (S239D, I332E) Fc
With B4, in assay [5], the Kd stood at 0.014 nM, the koff came to 7.58e-05 s⁻¹ and the kon amounted to 5.4e+06 M⁻¹ s⁻¹.

B5: CL25-dPTM (antibody, human IgG1, V domains shown)
VH: EVQLVETGGGLIQPGGSLRLSCAASGFTVSSNYMSWVRQAPGKGLEWVSVIYSGGSTYYADSVKGRFTISRDNSKNTLYLQMSSLRAEDTAVYYCARAVPHSPSAFDRWGQGTLVTVSS
notes: HCAb variant with PTM removal
For the molecule B5, in assay [3], the “IC50 (read off the curve)” value was around 7 nM. Moreover, in assay [4], the “EC50 (read off the curve)” value is around 1 nM.

B6: CL25-dPTM′ (antibody, human IgG1, V domains shown)
VH: EVQLVESGGGLIQPGGSLRLSCAASGFTVSSNYMSWVRQAPGKGLEWVSVIYSGGSTYYADSVKGRFTISRDNSKNTLYLQMNSLRAEDTAVYYCARAVPHSPSAFDRWGQGTLVTVSS
notes: HCAb variant with PTM removal
Turning to B6, in assay [3], the “IC50 (read off the curve)” value was around 7 nM. The “EC50 (read off the curve)” value in assay [4] was around 1 nM.

B7: CL22 (antibody, human IgG1, V domains shown)
VH: EVQLVETGGGLIQPGGSLRLSCAVSGFTVRNNYMSWARQVPGKGLEWVSVIYSGGSITYADSVKGRFIISRDNSNNTLYLQMNGLRAEDTAVYYCARAVPHAPSAFDIWGQGTMVTVSS
notes: Human heavy-chain-only antibody (HCAb): two heavy chains, no light chain; also called clone 22
For the molecule B7, the “IC50 (read off the curve)” value in assay [6] was around 10 nM. Moreover, the “EC50 (read off the curve)” value in assay [1] is around 1 nM; in assay [2], around 2 nM.

B8: CL5 (antibody, human IgG1, V domains shown)
VH: EVQLAETGGGLIQPGGSLRLSCAVSGFNVSKNYMSWVRQVPGKGLEWVAVVYSGGSKTYADSVKGRFILSRDNSDNTLYLQMNNLRAEDTAVYYCARAVPHSPSSFDIWGQGTMVTVSS
notes: Human heavy-chain-only antibody (HCAb): two heavy chains, no light chain; also called HCAb clone 5
In the case of B8, the “IC50 (read off the curve)” value in assay [6] was around 10 nM. For the same molecule, the “EC50 (read off the curve)” value in assay [1] was around 1 nM; in assay [2] it was around 2 nM.

B9: CL5-dPTM (antibody, human IgG1, V domains shown)
VH: EVQLAETGGGLIQPGGSLRLSCAVSGFTVSKNYMSWVRQVPGKGLEWVAVVYSGGSKTYADSVKGRFILSRDNSDNTLYLQMNNLRAEDTAVYYCARAVPHSPSSFDIWGQGTMVTVSS
notes: HCAb variant with PTM removal
On to B9, for which the “IC50 (read off the curve)” value in assay [3] was around 7 nM. Further, the “EC50 (read off the curve)” value in assay [4] was around 1 nM.

B10: CL11-dPTM′ (antibody, human IgG1, V domains shown)
VH: EVQLVESGGGLIQPGGSLRLSCAASGFTVSRIYMSWVRQAPGKGLEWVSVIYSGGSIYYADSVKGRFTISRDSSKNTVYLQMNSLRAEDTAVYYCARAVPSAPSSFDIWGQGTMVTVSS
notes: HCAb variant with PTM removal
As to B10, in assay [3], the “IC50 (read off the curve)” value was around 7 nM. Besides, in assay [4], the “EC50 (read off the curve)” value is around 1 nM.

B11: CL25 (antibody, human IgG1, V domains shown)
VH: EVQLVETGGGLIQPGGSLRLSCAASGFTVSSNYMSWVRQAPGKGLEWVSVIYSGGSTYYADSVKGRFTISRDNSKNTLYLQMSNLTAEDTAVYYCARAVPHSPSAFDRWGQGTLVTVSS
notes: Human heavy-chain-only antibody (HCAb): two heavy chains, no light chain; also called clone25
As to B11, the results for the “EC50 (read off the curve)” value in assay [1] and in assay [2] were around 1 nM and around 2 nM, respectively.

B12: CL22-dPTM (antibody, human IgG1, V domains shown)
VH: EVQLVETGGGLIQPGGSLRLSCAVSGFTVRNNYMSWARQVPGKGLEWVSVIYSGGSITYADSVKGRFIISRDNSKNTLYLQMNGLRAEDTAVYYCARAVPHAPSAFDIWGQGTMVTVSS
notes: HCAb variant with PTM removal
Take B12: the “IC50 (read off the curve)” value in assay [3] was around 7 nM. For the same molecule, the “EC50 (read off the curve)” value in assay [4] was around 1 nM.
